Reference: US20150057436A1 (ARGEN X, published 2015)

Assays:
[1] = target: T1, human IL-1 Beta (human, UniProt P01584 117-269, biotinylated in the Fab, phage and competition ELISAs); assay: ELISA: Fab captured on anti-myc plate, biot-IL-1 Beta, streptavidin-HRP
T1 construct: also called biot-IL-1 Beta; biotinylated IL-1 Beta
Experimental: For this the Fabs were captured on an anti-myc coated Maxisorp plate. Biotinylated human IL-1 Beta was added and bound cytokine was detected using HRP-conjugated streptavidin.
The genes of these Fabs were ordered as synthetic genes with GeneArt (Germany) and were subsequently produced in E. coli, purified and tested for their ability to bind biot-IL-1 Beta. For this the Fabs were captured on an anti-myc coated Maxisorp plate. Biotinylated human IL-1 Beta was added and bound cytokine was detected using HRP-conjugated streptavidin. The read out of this assay is represented in FIG. 3 below. [0459] […] [0460] Partial (wt Vλ/safe VH) and complete (wt Vλ/hum VH) humanization of the VH domain of 1E2 generated a functional Fab.

[2] = target: T2, neutravidin (UniProt P02701 25-152); assay: phage ELISA on neutravidin coated wells, crude phage extract, anti-M13-HRP
T2 construct: Capture protein of the phage ELISA, tested alone as the negative control
Experimental: (§1) The humanized variants of clone 1F2 were tested with phage expressing gene3-Fabs fusions (FIG. 4). Phage were produced from 4 independent clones for each construct: [0462] wt 1F2 and wt 1E2 (llama Vλ and VH fused to human CA and CH1) [0463] safe variant 1F2 and safe variant 1E2 (partially humanized Vλ fused to human CA and CH1) [0464] hum 1F2 and hum 1E2 (fully humanized Vλ and VH fused to human CA and CH1)
(§2) Four clones for each Fab were tested to overcome clonal variation (due to bacterial growth, phage production efficiency and toxicity etc. . . . ). Phage ELISA was performed by capturing of biotinylated IL-1 Beta on neutravidin coated Maxisorp plate and subsequent incubation of crude phage extract (i.e. bacterial medium). After extensive washing, bound phages were detected with an anti-M13-HRP monoclonal antibody. […] [0466] Back mutations in the framework regions of 1F2 VL and VH domains to the closest human germline successfully yield partially (safe) and fully (hum) humanized variants, maintaining antigen specificity. Successful Formatting of Camelid Variable Domains with Human Constant Domains

[3] = target: T1, human IL-1 Beta; assay: ELISA based competition assay; competitor: antagonistic reference mouse mAb
[4] = target: T1, human IL-1 Beta; assay: competition ELISA, periplasmic Fab extract; competitor: coated blocking mouse mAb; OD of biot-IL-1 Beta bound
[5] = target: T1, human IL-1 Beta; assay: cell-based or functional assay
[6] = target: T1, human IL-1 Beta; assay: phage ELISA: biot-IL-1 Beta captured on neutravidin, crude phage, anti-M13-HRP
Experimental: as §1, §2

T2 sequence (P02701 25-152): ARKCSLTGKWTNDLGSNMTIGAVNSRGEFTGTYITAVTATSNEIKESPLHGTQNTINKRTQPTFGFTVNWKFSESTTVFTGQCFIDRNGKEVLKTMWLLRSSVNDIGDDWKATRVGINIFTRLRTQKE

B1: wild type llama 1E2 Fab (Fab, V domains shown)
VH: EVQLVESGGGLVQPGGSLRLSCTASGFTFSNYWMYWVRQAPGKGLEWVSAINAAGSTYYADSVKGRFTISRDNAKNTLYLQMNSLQSEDTALYYCANLPRWGQGTQVTVSS
VL: QTVVTQEPSLSVSPGGTVTLTCGLSSGSVTSGNYPGWYQQKPGQAPRTLIYNTNSRYSGVPNRFSGSISGNKAALTITGAQPEDEADYYCAVYIGSSSYPVVFGGGTHLTVL
notes: Llama variable and llama constant domains, produced from pCB3; captured through its myc tag; also called Fab 1E2
B1: binds [1].

B2: wt 1E2 (llama Vλ and VH fused to human Cλ and CH1), phage expressing gene3-Fab fusion (Fab, V domains shown)
VH: EVQLVESGGGLVQPGGSLRLSCTASGFTFSNYWMYWVRQAPGKGLEWVSAINAAGSTYYADSVKGRFTISRDNAKNTLYLQMNSLQSEDTALYYCANLPRWGQGTQVTVSS
VL: QTVVTQEPSLSVSPGGTVTLTCGLSSGSVTSGNYPGWYQQKPGQAPRTLIYNTNSRYSGVPNRFSGSISGNKAALTITGAQPEDEADYYCAVYIGSSSYPVVFGGGTHLTVL
B2: no binding [2].

B3: chimeric 1E2 Fab (llama Vλ and VH fused to human Cλ and CH1) (Fab, V domains shown)
VH: EVQLVESGGGLVQPGGSLRLSCTASGFTFSNYWMYWVRQAPGKGLEWVSAINAAGSTYYADSVKGRFTISRDNAKNTLYLQMNSLQSEDTALYYCANLPRWGQGTQVTVSS
VL: QTVVTQEPSLSVSPGGTVTLTCGLSSGSVTSGNYPGWYQQKPGQAPRTLIYNTNSRYSGVPNRFSGSISGNKAALTITGAQPEDEADYYCAVYIGSSSYPVVFGGGTHLTVL
notes: VH fused to human CH1, Vλ fused to human Cλ; produced in E. coli from pCB5; myc tag; also called wt 1E2
B3: binds [1].

B4: hum 1E2 (fully humanized Vλ and VH fused to human Cλ and CH1), phage expressing gene3-Fab fusion (Fab, V domains shown)
VH: EVQLVESGGGLVQPGGSLRLSCAASGFTFSNYWMYWVRQAPGKGLEWVSAINAAGSTYYADSVKGRFTISRDNSKNTLYLQMNSLRAEDTAVYYCANLPRWGQGTLVTVSS
VL: QTVVTQEPSFSVSPGGTVTLTCGLSSGSVTSGNYPGWYQQTPGQAPRTLIYNTNSRSSGVPDRFSGSILGNKAALTITGAQADDESDYYCAVYIGSSSYPVVFGGGTKLTVL
B4: no binding [2].

B5: 1E2 Fab wt Vλ/safe VH (Fab, V domains shown)
VH: EVQLVESGGGLVQPGGSLRLSCAASGFTFSNYWMYWVRQAPGKGLEWVSAINAAGSTYYADSVKGRFTISRDNSKNTLYLQMNSLQSEDTAVYYCANLPRWGQGTQVTVSS
VL: QTVVTQEPSLSVSPGGTVTLTCGLSSGSVTSGNYPGWYQQKPGQAPRTLIYNTNSRYSGVPNRFSGSISGNKAALTITGAQPEDEADYYCAVYIGSSSYPVVFGGGTHLTVL
notes: also called wt/safe
B5: binds [1].

B6: 1E2 Fab wt Vλ/hum VH (Fab, V domains shown)
VH: EVQLVESGGGLVQPGGSLRLSCAASGFTFSNYWMYWVRQAPGKGLEWVSAINAAGSTYYADSVKGRFTISRDNSKNTLYLQMNSLRAEDTAVYYCANLPRWGQGTLVTVSS
VL: QTVVTQEPSLSVSPGGTVTLTCGLSSGSVTSGNYPGWYQQKPGQAPRTLIYNTNSRYSGVPNRFSGSISGNKAALTITGAQPEDEADYYCAVYIGSSSYPVVFGGGTHLTVL
notes: also called wt/hum
B6: binds [1].

B7: Fab 1C3 (Fab, part only; not given: lambda light chain, V domains shown, not shown: a dimerising Fc or GST)
VH: EVQLVESGGGLVQPGGSLRLSCAASGFTFSSYWMYWVRQAPGKGLEWVSAINTGGGRTYYADSVKGRFTISRDNAKNTLYLQMNSLKSEDTAVYYCAKGTSADGSSWYVPADPYDYWGQGTQVTVSS
In the case of B7, the concentration at which competition is seen [3] is reported as greater than 50 µg/mL, the OD [4] is reported as 0.386 OD and the IC50 in the bioassay [5] is reported as 3 µg/mL.

B8: hum 1F2 (fully humanized Vλ and VH fused to human Cλ and CH1), phage expressing gene3-Fab fusion (Fab, V domains shown)
VH: EVQLLESGGGLVQPGGSLRLSCAASGFTFSTYAMSWVRQAPGKGLEWVSGINTGGGSTGYADSVKGRFTISRDNSKNTLYLQMNSLRAEDTAVYYCAKDWMATTPWGQGTLVTVSS
VL: QTVVTQEPSFSVSPGGTVTLTCGLSSGSVTTNNYPGWYQQTPGQAPRTLIYNTNNRSSGVPDRFSGSILGNKAALTITGAQADDESDYYCALYMSSGSNNAVFGGGTKLTVL
notes: also called fully (hum) humanized 1F2
B8: binds [6]; no binding [2].

B9: Fab 1A1 (Fab, part only; not given: lambda light chain, V domains shown, not shown: a dimerising Fc or GST)
VH: EVQLVESGGGLVQPGGSLRLSCAASGFTFDDYAMSWVRQAPGKGLEWVSTISWNGGATYYAESMKGRFTISRDNAKNTLYLQMNSLKSEDTAVYYCAKPYYSDYVGVEYDYWGQGTQVTVSS
Binder B9 has an IC50 [3] of 12 µg/mL, an OD [4] of 0.205 OD and an IC50 in the bioassay [5] of 10 µg/mL.

B10: Fab 1B3 (Fab, part only; not given: lambda light chain, V domains shown, not shown: a dimerising Fc or GST)
VH: EVQLVQSGAELRNPGASVKVSCKASGYTFTSYYIDWVRQAPGQGLEWMGRIDPEDGGTKYAQKFQGRVTFTADTSTSTAYVELSSLRSEDTAVYYCARSGRYELDYWGQGTQVTVSS
In the case of B10, the OD [4] is reported as 0.444 OD.

B11: Fab 1G1 (Fab, part only; not given: lambda light chain, V domains shown, not shown: a dimerising Fc or GST)
VH: EVQLVQSGAELRNPGASVKVSCKASGYTFTSYYTDWVRQAPGQGLEWMGRIDPEDGDTKYAQKFQGRVTFTADTSTSTAYVELTSLRSEDTAVYYCLRSGAYELDYWGQGTQVTVSS
B11 showed an OD [4] of 0.498 OD.
